# B1: Kelch-like protein 20 (Homo sapiens), Q9Y2M5 (parent)
# chain: MEGKPMRRCTNIRPGETGMDVTSRCTLGDPNKLPEGVPQPARMPYISDKHPRQTLEVINLLRKHRELCDVVLVVGAKKIYAHRVILSACSPYFRAMFTGELAESRQTEVVIRDIDERAMELLIDFAYTSQITVEEGNVQTLLPAACLLQLAEIQEACCEFLKRQLDPSNCLGIRAFADTHSCRELLRIADKFTQHNFQEVMESEEFMLLPANQLIDIISSDELNVRSEEQVFNAVMAWVKYSIQERRPQLPQVLQHVRLPLLSPKFLVGTVGSDPLIKSDEECRDLVDEAKNYLLLPQERPLMQGPRTRPRKPIRCGEVLFAVGGWCSGDAISSVERYDPQTNEWRMVASMSKRRCGVGVSVLDDLLYAVGGHDGSSYLNSVERYDPKTNQWSSDVAPTSTCRTSVGVAVLGGFLYAVGGQDGVSCLNIVERYDPKENKWTRVASMSTRRLGVAVAVLGGFLYAVGGSDGTSPLNTVERYNPQENRWHTIAPMGTRRKHLGCAVYQDMIYAVGGRDDTTELSSAERYNPRTNQWSPVVAMTSRRSGVGLAVVNGQLMAVGGFDGTTYLKTIEVFDPDANTWRLYGGMNYRRLGGGVGVIKMTHCESHIW
# Variants of: B1
# Settings: with cul3_human CUL3, Q13618
row,Variant,effect of a mutation on the interaction
1,V109A,disrupting interaction
2,I111A,disrupting interaction
3,C146A,disrupting interaction

# Second part, the variant after the results:
row,effect of a mutation on the interaction,Variant
1,disrupting interaction,L148A
2,disrupting interaction,L150A
